Our source for the Kd, EC50 (read off the curve) and binding affinity higher than MECA79 (percent) values is US20210284740A1.

Assay [1] concerns the target peripheral lymph node addressin (PNAd) expressed on CHO cells. As to the kind of experiment: cell-based ELISA on fixed CHO-PNAd cells, antibody titrated 1 ng/ml to 300 ug/ml, fitted curve. On the technique in general: An ELISA detects its analyte on a solid surface through an enzyme-linked reagent.
Assay [2] has the same target. As to the kind of experiment: cell-based ELISA on fixed CHO-PNAd cells, HRP-conjugated secondary antibody, TMB, OD450.
Assay [3] has the same target. As to the kind of experiment: cell-based ELISA on fixed CHO-PNAd cells; compared with the reference MECA79.

In assay [1], MECA79 monoclonal antibody yielded a Kd of 1.41 nM. For the same molecule, the EC50 (read off the curve) in assay [2] is 5 µg/mL.

B1: MHA112 monoclonal antibody (mAb) (antibody, mouse IgM, V domains shown)
VH: QVQLKESGPGLVAPSQSLSITCTVSGFSLTSYGVDWVRQPPGKGLEWLGVIWGGGSTNYNSALMSRLSISKDNSKSQVFLKMNSLQTDDTAMYYCAKHSKGGYFDVWGTGTTVTVSS
VL: EIVLTQSPAITAASLGQKVTITCSASSSVSYMHWYQQKSGTSPKPWIYEISKLASGVPARFSGSGSGTSYSLTISSMEAEDAAIYYCQQWNYPLITFGAGTKLELK
For the molecule B1, in assay [1], the Kd was found to be 0.97 nM. In assay [3], the binding affinity higher than MECA79 (percent) was 30%. For the same molecule, the EC50 (read off the curve) in assay [2] is 4 µg/mL.

The term Kd denotes the concentration at which binding is half-saturated. Low readings indicate higher affinity, high ones lower affinity. As usually defined, the EC50 (read off the curve) is the concentration needed to bring the measured effect to its halfway point. Read a high EC50 (read off the curve) as a need for much substance.
